Measured values taken from patent US20250340631A1 (HARBOUR BIOMED SHANGHAI, published 2025).

T1: Human CD32a(H) (human, UniProt P12318 36-218, limits assumed)
T1 sequence (looked up): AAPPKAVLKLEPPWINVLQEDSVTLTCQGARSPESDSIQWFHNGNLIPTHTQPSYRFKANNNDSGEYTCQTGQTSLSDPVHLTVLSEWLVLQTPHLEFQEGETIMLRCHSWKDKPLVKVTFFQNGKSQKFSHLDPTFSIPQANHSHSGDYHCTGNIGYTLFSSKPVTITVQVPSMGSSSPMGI

T2: Human CD32b (human, UniProt P31994 46-217, limits assumed)
T2 sequence (looked up): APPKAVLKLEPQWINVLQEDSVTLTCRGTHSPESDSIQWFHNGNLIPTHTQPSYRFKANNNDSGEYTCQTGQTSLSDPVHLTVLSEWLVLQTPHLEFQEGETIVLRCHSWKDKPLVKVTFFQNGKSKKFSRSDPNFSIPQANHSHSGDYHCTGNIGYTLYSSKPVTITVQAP

T3: Cynomolgus CD3E (Acro, CDE-C5226) (cynomolgus, UniProt Q95LI5 22-117, biotinylated (mixed with biotin 1:3))
T3 sequence (looked up): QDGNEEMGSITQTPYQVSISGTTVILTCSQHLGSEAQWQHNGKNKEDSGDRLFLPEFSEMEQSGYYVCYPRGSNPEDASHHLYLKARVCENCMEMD

T4: human CLDN4 (human, UniProt O14493 1-209)
T4 construct: whole, on cells; also called hCLDN4
T4 sequence (looked up): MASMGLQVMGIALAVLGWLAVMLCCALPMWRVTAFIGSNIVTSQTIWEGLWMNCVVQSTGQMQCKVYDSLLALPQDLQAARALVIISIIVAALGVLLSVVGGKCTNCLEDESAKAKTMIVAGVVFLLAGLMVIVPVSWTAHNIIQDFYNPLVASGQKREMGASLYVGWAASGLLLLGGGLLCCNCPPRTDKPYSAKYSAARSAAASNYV

T5: human CLDN6 (human, UniProt P56747 1-220)
T5 construct: whole, on cells; also called hCLDN6
T5 sequence (looked up): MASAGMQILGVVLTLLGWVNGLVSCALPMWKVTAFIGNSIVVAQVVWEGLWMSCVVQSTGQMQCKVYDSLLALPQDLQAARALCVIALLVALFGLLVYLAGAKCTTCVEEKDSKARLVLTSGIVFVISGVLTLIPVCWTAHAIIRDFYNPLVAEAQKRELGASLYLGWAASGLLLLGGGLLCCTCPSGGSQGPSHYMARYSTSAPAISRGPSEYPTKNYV


Columns and labels:
human CLDN18.2 [1] = target: T6, human CLDN18.2 (human); experiment: FACS on NUGC4_D8 cells
T6 construct: the HEK293 line was made with a GenScript plasmid; also called hCLDN18.2
Method: (§1) Antibodies were assayed for binding affinity by FACS. Test cells include HEK293/hCLDN18.2, HEK293/hCLDN18.1, NUGC4_D8 and Jurkat cells. […] The cell density was adjusted to 10⁶ cells/mL, and 50 μL of the cell suspension was added to each well of a 96-well plate. Antibodies were diluted to different concentrations with FACS buffer, and 50 μL of the antibody dilution was added to each well of the 96-well plate. After 2 h of incubation at 4° C., the plate was washed twice with FACS buffer. […] After 1 h of incubation at 4° C., the plate was washed twice with FACS buffer. The cells were resuspended in fixative solution, and then the fluorescence of the cells was monitored using an FACS instrument (ACEA NovoCyte).

human CLDN18.2 [2] = target: T6, human CLDN18.2; experiment: cell-based or functional assay
[3] = target: CLDN18.2 of SNU620 cells (methionine to leucine at amino acid 149) (human, UniProt P56856-2 1-261); experiment: cell-based or functional assay
Sequence of CLDN18.2 of SNU620 cells (methionine to leucine at amino acid 149) (P56856 other isoform, or with tags, fused parts or gaps limits assumed): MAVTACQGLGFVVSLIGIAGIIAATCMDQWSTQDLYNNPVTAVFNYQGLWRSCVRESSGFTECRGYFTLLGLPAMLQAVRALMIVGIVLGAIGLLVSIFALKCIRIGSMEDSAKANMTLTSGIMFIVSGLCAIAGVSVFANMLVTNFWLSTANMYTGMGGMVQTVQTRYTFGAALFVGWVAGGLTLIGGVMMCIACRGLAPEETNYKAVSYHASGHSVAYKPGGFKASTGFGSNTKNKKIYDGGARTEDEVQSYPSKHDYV

human CLDN18.2 [4] = target: T6, human CLDN18.2; experiment: FACS on HEK293/hCLDN18.2 cells
Method: as §1

Human CD64 = target: T7, Human CD64 (human, UniProt P12314 16-288, limits assumed); experiment: BLI (Octet), antibody on FAB2G sensor
T7 construct: bought recombinant protein
T7 sequence (P12314 16-288 limits assumed): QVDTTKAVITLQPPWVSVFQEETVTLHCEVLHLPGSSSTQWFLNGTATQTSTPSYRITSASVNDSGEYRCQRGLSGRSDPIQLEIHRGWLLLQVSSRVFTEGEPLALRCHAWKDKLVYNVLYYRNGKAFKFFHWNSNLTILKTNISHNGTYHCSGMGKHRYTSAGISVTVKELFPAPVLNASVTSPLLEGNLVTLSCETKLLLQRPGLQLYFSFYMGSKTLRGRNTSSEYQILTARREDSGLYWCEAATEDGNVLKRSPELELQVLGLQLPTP
Method: (§2) The binding kinetics between proteins and antibodies was analyzed by the Biolayer Interferometry (BLI) technique using an Octet Red 96e (Fortebio) system. The rotation speed was set at 1000 rpm for the system. […] After equilibrated in the buffer for 120 s, the FAB2G sensor was allowed to bind to 2-fold serially diluted human Fc receptor protein. Finally, the FAB2G sensor was immersed in a 10 mM glycine-hydrochloric acid solution at pH 1.5 for regeneration to elute the proteins bound to the sensor. The affinity assays of antibodies for FcRn were performed under the conditions of both pH 6.0 buffer and pH 7.4 buffer. […] For the interactions of fast binding and fast dissociation, the “steady state” method was selected to fit the data to obtain KD(M) values.

Human CD16a(V) = Human CD16a(V) (human, UniProt P08637 17-208); experiment: BLI (Octet), antibody on FAB2G sensor
Sequence of Human CD16a(V) (P08637 17-208 F176V limits assumed): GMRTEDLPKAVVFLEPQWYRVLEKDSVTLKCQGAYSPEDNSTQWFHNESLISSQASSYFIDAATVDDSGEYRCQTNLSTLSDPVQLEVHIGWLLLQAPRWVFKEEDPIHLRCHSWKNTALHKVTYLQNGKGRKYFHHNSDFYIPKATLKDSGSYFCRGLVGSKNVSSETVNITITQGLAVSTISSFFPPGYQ
Method: as §2

Human CD16a(F) = Human CD16a(F) (human, UniProt P08637 17-208); experiment: BLI (Octet), antibody on FAB2G sensor
Sequence of Human CD16a(F) (P08637 17-208 limits assumed): as the sequence (P08637 17-208 F176V limits assumed) above, with V160F counted along it
Method: as §2

Human CD32a(H) = target: T1, Human CD32a(H); experiment: BLI (Octet), antibody on FAB2G sensor
Method: as §2

Human CD32b = target: T2, Human CD32b; experiment: BLI (Octet), antibody on FAB2G sensor
Method: as §2

[5] = target: T8, Human CD3E (Acro, CDE-H5223) (human, UniProt P07766 23-126, biotinylated (mixed with biotin 1:3)); experiment: BLI (Octet), biotinylated CD3 on SA sensor, 1:1 global fit;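 note: antibodies applied as analyte in 2-fold serial dilutions, with a 180 s association phase followed by a 300 s dissociation phase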
T8 construct: also called Human CD3Ec
T8 sequence (P07766 23-126 limits assumed): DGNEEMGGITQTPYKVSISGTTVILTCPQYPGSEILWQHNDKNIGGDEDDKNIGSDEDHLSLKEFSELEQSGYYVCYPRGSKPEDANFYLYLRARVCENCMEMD
Method: (§3) The binding kinetics between proteins and antibodies was analyzed by the Biolayer Interferometry (BLI) technique using an Octet Red 96e (Fortebio) system. Human CD3E (Acro, CDE-H5223), cynomolgus CD3E (Acro, CDE-C5226) and murine CD3E (Acro, CDE-M5256) were mixed with biotin (Thermo Scientific, A39257) in a molar ratio of 1:3. The mixture was incubated at 4° C. overnight, and then excess biotin was removed to obtain biotinylated CD3E. The rotation speed was set at 1000 rpm for the system. […] After being equilibrated in the buffer for 120 s, the SA sensor with captured CD3 was allowed to bind to 2-fold serially diluted antibodies. […] Finally, the SA sensor was immersed in a 10 mM glycine-hydrochloric acid solution at pH 1.5 for regeneration to elute the antibodies bound to the sensor. […] For the interactions of fast binding and fast dissociation, the “steady state” method was selected to fit the data to obtain KD(M) values.

[6] = target: T9, Biotinylated human CD3E&D (human, UniProt P07766 23-126; P04234 22-105, biotin label); experiment: as above
T9 construct: also called CDD-H82W6
T9 sequence (P07766 23-126, chain 1 of 2): as the sequence (P07766 23-126 limits assumed) above
T9 sequence (P04234 22-105, chain 2 of 2): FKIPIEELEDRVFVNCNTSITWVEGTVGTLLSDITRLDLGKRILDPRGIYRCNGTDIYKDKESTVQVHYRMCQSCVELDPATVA
Method: as §3

[7] = target: T3, Cynomolgus CD3E (Acro, CDE-C5226); experiment: as above
Method: as §3

[8] = target: T10, Biotinylated cynomolgus CD3E&D (cynomolgus, UniProt Q95LI5 22-117; Q95LI8 22-105, biotin label); experiment: as above
T10 construct: also called CDD-C82W6
T10 sequence (Q95LI8 22-105, one chain of several): as the sequence (P04234 22-105, chain 2 of 2) above, with I5V, N15K, I20V, S32T, D33N, I34N, T64A, S74N, V83L counted along it
Method: as §3

human CLDN4 = target: T4, human CLDN4; experiment: FACS on HEK293 cells transiently expressing human CLDN4
Method: (§4) Antibodies were assayed for binding affinity to human CLDN18.2 paralogous proteins by FACS (ACEA NovoCyte). CLDN1, CLDN2, CLDN3, CLDN4, CLDN6 and CLDN9 genes of the human CLDN18.2 paralogous family were transiently transfected into HEK293 cells. […] The cell density was adjusted to 10⁶ cells/mL, and 50 μL of the cell suspension was added to each well of a 96-well plate. An antibody was diluted to 60 nM with FACS buffer, and 50 μL of the antibody dilution was added to each well of the 96-well plate. After 2 h of incubation at 4° C., the plate was washed twice with FACS buffer. Then, an FACS buffer containing a secondary antibody was added. After 1 h of incubation at 4° C., the plate was washed twice with FACS buffer. The cells were resuspended in fixative solution, and run FACS.

human CLDN6 = target: T5, human CLDN6; experiment: FACS on HEK293 cells transiently expressing human CLDN6
Method: as §4

Human FcRn = Human FcRn (human, UniProt P55899 24-297; P61769 21-119); experiment: BLI (Octet), antibody on FAB2G sensor, pH 6.0, 1:1 global fit; pH 6.0; 400-25 nM
Method: as §2

human CLDN18.2 [9] = target: T6, human CLDN18.2; experiment: competition FACS on HEK293/hCLDN18.2 cells; competitor 10 nM biotinylated PR000400
Method: (§5) This example is to study the binding of anti-human CLDN18.2 bispecific antibodies to the epitope region of a human CLDN18.2 antigen. Competitive binding experiments were performed at the cellular level using human CLDN18.2-overexpressing HEK293/hCLDN18.2 cells. […] The mixture was well mixed and incubated at 4° C. for 30 min. 25 μL of the corresponding serially diluted non-biotinylated anti-human CLDN18.2 antibody was added. The mixture was well mixed and incubated at 4° C. for 1 h. The cells in each well were washed twice with 200 μL of pre-cooled FACS buffer (2% BSA in DPBS) and centrifuged at 500 g at 4° C. for 5 min, and then the supernatant was discarded. A fluorescent secondary antibody (Jackson ImmunoResearch, 016-540-084, 1:500) was added. The mixture was incubated at 4° C. in the absence of light for 1 h. The cells in each well were washed twice with 200 μL of pre-cooled FACS buffer (2% BSA in DPBS) and centrifuged at 500 g at 4° C. for 5 min, and then the supernatant was discarded. Finally, the cells in each well were resuspended in 200 μL of pre-cooled FACS buffer, and the fluorescence signal values were read using a ACEA_NovoCyte.

human CLDN18.2 [10] = target: T6, human CLDN18.2; experiment: competition FACS on HEK293/hCLDN18.2 cells; competitor 200 nM biotinylated PR004549
Method: as §5

| EC50 (human CLDN18.2 [1]) | TDCC, Titer EC50 (pM), NUGC4_D8 (human CLDN18.2 [2]) | TDCC, Titer EC50 (pM), SNU620 [3] | EC50 (human CLDN18.2 [4]) | binding result (Human CD64) | binding result (Human CD16a(V)) | binding result (Human CD16a(F)) | binding result (Human CD32a(H)) | binding result (Human CD32b) | Kd [5] | koff [5] | kon [5] | Kd [6] | koff [6] | kon [6] | Kd [7] | koff [7] | kon [7] | Kd [8] | koff [8] | Binder | also measured |
| --- | --- | --- | --- | --- | --- | --- | --- | --- | --- | --- | --- | --- | --- | --- | --- | --- | --- | --- | --- | --- | --- |
| 70.1 nM | 185 pM | 113 pM | 11.5 nM | no binding (tested: 800-50 nM) | no binding (tested: 6000-375 nM) | no binding (tested: 10000-625 nM) | no binding (tested: 10000-625 nM) | no binding (tested: 10000-625 nM) | 99 nM | 0.00978 s⁻¹ | 98900 M⁻¹ s⁻¹ | 144 nM | 0.0122 s⁻¹ | 84700 M⁻¹ s⁻¹ | 140 nM | 0.0105 s⁻¹ | 75100 M⁻¹ s⁻¹ | 113 nM | 0.00965 s⁻¹ | PR006292 (bispecific antibody, human IgG1, lambda, structure 1; CD3 Fab from PR003886, CLDN18.2 VH from PR007245; IgG1 knob/hole, AAA (L234A, L235A, G237A)) EVQLVESGGGLVQPGGSLRLSCAASGFTFSSYWMHWVRQVPGKGLVWVSRISSDASRTIYADSVKGRFTISRDNAKNTLYLQMNSLRAEDTAVYYCARGEDHDILTGYPIRGQGTTVTVSSGGGGSGGGGSGGGGSEVQLVESGGGLVQPGGSLRLSCAASGFTFSSYWMHWVRQVPGKGLVWVSRISSDASRTIYADSVKGRFTISRDNAKNTLYLQMNSLRAEDTAVYYCARGEDHDILTGYPIRGQGTTVTVSSASEPKSSDKTHTCPPCPAPEAAGAPSVFLFPPKPKDTLMISRTPEVTCVVVDVSHEDPEVKFNWYVDGVEVHNAKTKPREEQYNSTYRVVSVLTVLHQDWLNGKEYKCKVSNKALPAPIEKTISKAKGQPREPQVCTLPPSREEMTKNQVSLSCAVKGFYPSDIAVEWESNGQPENNYKTTPPVLDSDGSFFLVSKLTVDKSRWQQGNVFSCSVMHEALHNHYTQKSLSLSPGK heavy: EVQLVESGGGLVQPGGSLKLSCAASGFTFSTYAMNWVRQASGKGLEWVGRIRSKYNNYATYYADSVKDRFTISRDDSKNTAYLQMNSLKTEDTAVYYCTRHGNFGNSYVSWFAYWGQGTLVTVSSASTKGPSVFPLAPSSKSTSGGTAALGCLVKDYFPEPVTVSWNSGALTSGVHTFPAVLQSSGLYSLSSVVTVPSSSLGTQTYICNVNHKPSNTKVDKKVEPKSCDKTHTCPPCPAPEAAGAPSVFLFPPKPKDTLMISRTPEVTCVVVDVSHEDPEVKFNWYVDGVEVHNAKTKPREEQYNSTYRVVSVLTVLHQDWLNGKEYKCKVSNKALPAPIEKTISKAKGQPREPQVYTLPPCREEMTKNQVSLWCLVKGFYPSDIAVEWESNGQPENNYKTTPPVLDSDGSFFLYSKLTVDKSRWQQGNVFSCSVMHEALHNHYTQKSLSLSPGK light: QAVVTQEPSLTVSPGGTVTLTCRSSTGAVTTSNYANWVQQKPGQAPRGLIGGTNKRAPWTPARFSGSLLGDKAALTLLGAQPEDEAEYFCALWYSNLWVFGGGTKLTVLGQPKAAPSVTLFPPSSEELQANKATLVCLISDFYPGAVTVAWKADSSPVKAGVETTTPSKQSNNKYAASSYLSLTPEQWKSHRSYSCQVTHEGSTVEKTVAPTECS | kon [8]: 85700 M⁻¹ s⁻¹; binding result (human CLDN4): no binding; binding result (human CLDN6): no binding; Kd (Human FcRn): 200 nM; koff (Human FcRn): 0.0609 s⁻¹; kon (Human FcRn): 305000 M⁻¹ s⁻¹; IC50 (human CLDN18.2 [9]): 87.7 nM; Maximum inhibition rate (%) (human CLDN18.2 [9]): 97.7%; IC50 (human CLDN18.2 [10]): 70.8 nM; Maximum inhibition rate (%) (human CLDN18.2 [10]): 48.1% |
| 51.4 nM | 57.9 pM | 57.1 pM | 14.4 nM | no binding (tested: 800-50 nM) | no binding (tested: 6000-375 nM) | no binding (tested: 10000-625 nM) | no binding (tested: 10000-625 nM) | no binding (tested: 10000-625 nM) | 151 nM | 0.0129 s⁻¹ | 85400 M⁻¹ s⁻¹ | 132 nM | 0.0119 s⁻¹ | 90200 M⁻¹ s⁻¹ | 165 nM | 0.0122 s⁻¹ | 74000 M⁻¹ s⁻¹ | 152 nM | 0.00942 s⁻¹ | PR006384 (bispecific antibody, human IgG1, lambda, structure 1; CD3 Fab from PR003886, CLDN18.2 VH from PR007246; AAA) EVQLVESGGGLVQPGGSLRLSCAASGFTFSSYWMHWVRQVPGKGLVWVSRISSTGSRTIYADSVKGRFTISRDNAKNTLYLQMNSLRAEDTAVYYCARGEDHDILTGYPIRGQGTTVTVSSGGGGSGGGGSGGGGSEVQLVESGGGLVQPGGSLRLSCAASGFTFSSYWMHWVRQVPGKGLVWVSRISSTGSRTIYADSVKGRFTISRDNAKNTLYLQMNSLRAEDTAVYYCARGEDHDILTGYPIRGQGTTVTVSSASEPKSSDKTHTCPPCPAPEAAGAPSVFLFPPKPKDTLMISRTPEVTCVVVDVSHEDPEVKFNWYVDGVEVHNAKTKPREEQYNSTYRVVSVLTVLHQDWLNGKEYKCKVSNKALPAPIEKTISKAKGQPREPQVCTLPPSREEMTKNQVSLSCAVKGFYPSDIAVEWESNGQPENNYKTTPPVLDSDGSFFLVSKLTVDKSRWQQGNVFSCSVMHEALHNHYTQKSLSLSPGK heavy: EVQLVESGGGLVQPGGSLKLSCAASGFTFSTYAMNWVRQASGKGLEWVGRIRSKYNNYATYYADSVKDRFTISRDDSKNTAYLQMNSLKTEDTAVYYCTRHGNFGNSYVSWFAYWGQGTLVTVSSASTKGPSVFPLAPSSKSTSGGTAALGCLVKDYFPEPVTVSWNSGALTSGVHTFPAVLQSSGLYSLSSVVTVPSSSLGTQTYICNVNHKPSNTKVDKKVEPKSCDKTHTCPPCPAPEAAGAPSVFLFPPKPKDTLMISRTPEVTCVVVDVSHEDPEVKFNWYVDGVEVHNAKTKPREEQYNSTYRVVSVLTVLHQDWLNGKEYKCKVSNKALPAPIEKTISKAKGQPREPQVYTLPPCREEMTKNQVSLWCLVKGFYPSDIAVEWESNGQPENNYKTTPPVLDSDGSFFLYSKLTVDKSRWQQGNVFSCSVMHEALHNHYTQKSLSLSPGK light: QAVVTQEPSLTVSPGGTVTLTCRSSTGAVTTSNYANWVQQKPGQAPRGLIGGTNKRAPWTPARFSGSLLGDKAALTLLGAQPEDEAEYFCALWYSNLWVFGGGTKLTVLGQPKAAPSVTLFPPSSEELQANKATLVCLISDFYPGAVTVAWKADSSPVKAGVETTTPSKQSNNKYAASSYLSLTPEQWKSHRSYSCQVTHEGSTVEKTVAPTECS | TDCC, Titer EC50 (pM), IM95 (human CLDN18.2 [2]): 938 pM; kon [8]: 62200 M⁻¹ s⁻¹; binding result (human CLDN4): no binding; binding result (human CLDN6): no binding; Kd (Human FcRn): 210 nM; koff (Human FcRn): 0.0608 s⁻¹; kon (Human FcRn): 289000 M⁻¹ s⁻¹; IC50 (human CLDN18.2 [9]): 103 nM; Maximum inhibition rate (%) (human CLDN18.2 [9]): 97.8%; IC50 (human CLDN18.2 [10]): 56.7 nM; Maximum inhibition rate (%) (human CLDN18.2 [10]): 48.5% |
